# Experimental data published in the RNAGym collection of RNA variant scans (doi:10.1093/molbev/msab373).
# B1: Azoarcus group I ribozyme (parent)
# chain: GUGCCUUGCGCCGGGAAACCACGCAAGGGAUGGUGUCAAAUUCGGCGAAACCUAAGCGCCCGCCCGGGCGUAUGGCAACGCCGAGCCAAGCUUCGGCGCCUGCGCCGAUGAAGGUGUAGAGACUAGACGGCACCCACCUAAGGCAAACGCUAUGGUGAAGGCAUAGUCCAGGGAGUGGCGAAAGUCACACAAACCGG
# Variants of: B1
# Experiment: reverse-splicing fitness (ratio to wild type); higher = more active; in vitro selection; Mg2+ level not given
# Summary of the method: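 An in vitro group I ribozyme library with randomized positions was T7-transcribed and gel-purified. In triplicate, 10 pmol RNA in EPPS pH 7.5 was reacted with 50 pmoles of a 30-nt RNA substrate for 1 h at 37 °C across several added MgCl2 levels (1–48 mM), then stopped with EDTA. Products were reverse transcribed from a substrate-complementary primer, PCR-amplified and sequenced (HiSeq 4000). Fitness is a variant's read proportion after selection over that before, normalised to wild type.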
row,Variant,reverse-splicing fitness
1,GUGCCUUGCGCCGGGAAACCACGCAAGGGAUGGUGUCAAAUUCGGCGAAACCUAAGCGCCCGCCCGGGCGUAUGGCAACGCGGAGCCAAGCUUCGGCGCCUGCGCCGAUGGAGGUGUAGCGACUAGACGGCACCCACCUAAGGCAAACGGUAUGGUGAAGGCAUAGUCGAGGGAGUGGCGAAAGUCACACAAACCGG [C82G A111G A120C C150G C169G],0.008
2,GUGCCUUGCGCCGGGAAACCACGCAAGGGAUGGUGUCAAAUUCGGCGAAACCUAAGCGCCCGCCCGGGCGUAUGGCAACGCGGAGCCAAGCUUCGGCGCCUGCGCCGAUGGAGGUGUAGCGACUAGACGGCACCCACCUAAGGCAAACGGUAUGGUGAAGGCAUAGUCAAGGGAGUGGCGAAAGUCACACAAACCGG [C82G A111G A120C C150G C169A],0.00976
3,GUGCCUUGCGCCGGGAAACCACGCAAGGGAUGGUGUCAAAUUCGGCGAAACCUAAGCGCCCGCCCGGGCGUAUGGCAACGCGGAGCCAAGCUUCGGCGCCUGCGCCGAUGGAGGUGUAGCGACUAGACGGCACCCACCUAAGGCAAACGGUAUGGUGAAGGCAUAGUCGAGGGAGAGGCGAAAGUCACACAAACCGG [C82G A111G A120C C150G C169G U176A],0.00929
4,GUGCCUUGCGCCGGGAAACCACGCAAGGGAUGGUGUCAAAUUCGGCGAAACCUAAGCGCCCGCCCGGGCGUAUGGCAACGCGGAGCCAAGCUUCGGCGCCUGCGCCGAUGGAGGUGUAGCGACUAGACGGCACCCACCUAAGGCUAACGCUAUGGUGAAGGCAUAGUCCAGGGAGCGGCGAAAGUCACACAAACCGG [C82G A111G A120C A145U U176C],0.0434
5,GUGCCUUGCGCCGGGAAACCACGCAAGGGAUGGUGUCAAAUUCGGCGAAACCUAAGCGCCCGCCCGGGCGUAUGGCAACGCGGAGCCAAGCUUCGGCGCCUGCGCCGAUGGAGGUGUAGCGACUAGACGGCACCCACCUAAGGCUAACGCUAUGGUGAAGGCAUAGUCCAGGGAGAGGCGAAAGUCACACAAACCGG [C82G A111G A120C A145U U176A],0.0294
6,GUGCCUUGCGCCGGGAAACCACGCAAGGGAUGGUGUCAAAUUCGGCGAAACCUAAGCGCCCGCCCGGGCGUAUGGCAACGCGGAGCCAAGCUUCGGCGCCUGCGCCGAUGGAGGUGUAGCGACUAGACGGCACCCACCUAAGGCUAACGCUAUGGUGAAGGCAUAGUCCAGGGAGGGGCGAAAGUCACACAAACCGG [C82G A111G A120C A145U U176G],0.00776
7,GUGCCUUGCGCCGGGAAACCACGCAAGGGAUGGUGUCAAAUUCGGCGAAACCUAAGCGCCCGCCCGGGCGUAUGGCAACGCGGAGCCAAGCUUCGGCGCCUGCGCCGAUGGAGGUGUAGCGACUAGACGGCACCCACCUAAGGCUAACGCUAUGGUGAAGGCAUAGUCUAGGGAGGGGCGAAAGUCACACAAACCGG [C82G A111G A120C A145U C169U U176G],0.00484
8,GUGCCUUGCGCCGGGAAACCACGCAAGGGAUGGUGUCAAAUUCGGCGAAACCUAAGCGCCCGCCCGGGCGUAUGGCAACGCGGAGCCAAGCUUCGGCGCCUGCGCCGAUGGAGGUGUAGCGACUAGACGGCACCCACCUAAGGCUAACGCUAUGGUGAAGGCAUAGUCUAGGGAGCGGCGAAAGUCACACAAACCGG [C82G A111G A120C A145U C169U U176C],0.0124
9,GUGCCUUGCGCCGGGAAACCACGCAAGGGAUGGUGUCAAAUUCGGCGAAACCUAAGCGCCCGCCCGGGCGUAUGGCAACGCGGAGCCAAGCUUCGGCGCCUGCGCCGAUGGAGGUGUAGCGACUAGACGGCACCCACCUAAGGCUAACGCUAUGGUGAAGGCAUAGUCUAGGGAGAGGCGAAAGUCACACAAACCGG [C82G A111G A120C A145U C169U U176A],0.0129
10,GUGCCUUGCGCCGGGAAACCACGCAAGGGAUGGUGUCAAAUUCGGCGAAACCUAAGCGCCCGCCCGGGCGUAUGGCAACGCGGAGCCAAGCUUCGGCGCCUGCGCCGAUGGAGGUGUAGCGACUAGACGGCACCCACCUAAGGCAAACGGUAUGGUGAAGGCAUAGUCAAGGGAGAGGCGAAAGUCACACAAACCGG [C82G A111G A120C C150G C169A U176A],0.0102
11,GUGCCUUGCGCCGGGAAACCACGCAAGGGAUGGUGUCAAAUUCGGCGAAACCUAAGCGCCCGCCCGGGCGUAUGGCAACGCGGAGCCAAGCUUCGGCGCCUGCGCCGAUGGAGGUGUAGCGACUAGACGGCACCCACCUAAGGCAAACGGUAUGGUGAAGGCAUAGUCAAGGGAGGGGCGAAAGUCACACAAACCGG [C82G A111G A120C C150G C169A U176G],0.00813
12,GUGCCUUGCGCCGGGAAACCACGCAAGGGAUGGUGUCAAAUUCGGCGAAACCUAAGCGCCCGCCCGGGCGUAUGGCAACGCGGAGCCAAGCUUCGGCGCCUGCGCCGAUGGAGGUGUAGCGACUAGACGGCACCCACCUAAGGCAAACGGUAUGGUGAAGGCAUAGUCAAGGGAGCGGCGAAAGUCACACAAACCGG [C82G A111G A120C C150G C169A U176C],0.016
13,GUGCCUUGCGCCGGGAAACCACGCAAGGGAUGGUGUCAAAUUCGGCGAAACCUAAGCGCCCGCCCGGGCGUAUGGCAACGCGGAGCCAAGCUUCGGCGCCUGCGCCGAUGGAGGUGUAGCGACUAGACGGCACCCACCUAAGGCUAACGCUAUGGUGAAGGCAUAGUCUAGGGAGUGGCGAAAGUCACACAAACCGG [C82G A111G A120C A145U C169U],0.0157
14,GUGCCUUGCGCCGGGAAACCACGCAAGGGAUGGUGUCAAAUUCGGCGAAACCUAAGCGCCCGCCCGGGCGUAUGGCAACGCGGAGCCAAGCUUCGGCGCCUGCGCCGAUGGAGGUGUAGCGACUAGACGGCACCCACCUAAGGCAAACGAUAUGGUGAAGGCAUAGUCAAGGGAGGGGCGAAAGUCACACAAACCGG [C82G A111G A120C C150A C169A U176G],0.00841
15,GUGCCUUGCGCCGGGAAACCACGCAAGGGAUGGUGUCAAAUUCGGCGAAACCUAAGCGCCCGCCCGGGCGUAUGGCAACGCGGAGCCAAGCUUCGGCGCCUGCGCCGAUGGAGGUGUAGCGACUAGACGGCACCCACCUAAGGCAAACGAUAUGGUGAAGGCAUAGUCAAGGGAGCGGCGAAAGUCACACAAACCGG [C82G A111G A120C C150A C169A U176C],0.0204
